Consider two molecules from patent US20130064826A1 (KALOBIOS PHARMACEUTICALS, published 2013).

Assay [1] concerns the target T1, EMR1 on human eosinophils (human, UniProt Q14246 21-886).
T1 construct: whole, on cells
T1 sequence (looked up): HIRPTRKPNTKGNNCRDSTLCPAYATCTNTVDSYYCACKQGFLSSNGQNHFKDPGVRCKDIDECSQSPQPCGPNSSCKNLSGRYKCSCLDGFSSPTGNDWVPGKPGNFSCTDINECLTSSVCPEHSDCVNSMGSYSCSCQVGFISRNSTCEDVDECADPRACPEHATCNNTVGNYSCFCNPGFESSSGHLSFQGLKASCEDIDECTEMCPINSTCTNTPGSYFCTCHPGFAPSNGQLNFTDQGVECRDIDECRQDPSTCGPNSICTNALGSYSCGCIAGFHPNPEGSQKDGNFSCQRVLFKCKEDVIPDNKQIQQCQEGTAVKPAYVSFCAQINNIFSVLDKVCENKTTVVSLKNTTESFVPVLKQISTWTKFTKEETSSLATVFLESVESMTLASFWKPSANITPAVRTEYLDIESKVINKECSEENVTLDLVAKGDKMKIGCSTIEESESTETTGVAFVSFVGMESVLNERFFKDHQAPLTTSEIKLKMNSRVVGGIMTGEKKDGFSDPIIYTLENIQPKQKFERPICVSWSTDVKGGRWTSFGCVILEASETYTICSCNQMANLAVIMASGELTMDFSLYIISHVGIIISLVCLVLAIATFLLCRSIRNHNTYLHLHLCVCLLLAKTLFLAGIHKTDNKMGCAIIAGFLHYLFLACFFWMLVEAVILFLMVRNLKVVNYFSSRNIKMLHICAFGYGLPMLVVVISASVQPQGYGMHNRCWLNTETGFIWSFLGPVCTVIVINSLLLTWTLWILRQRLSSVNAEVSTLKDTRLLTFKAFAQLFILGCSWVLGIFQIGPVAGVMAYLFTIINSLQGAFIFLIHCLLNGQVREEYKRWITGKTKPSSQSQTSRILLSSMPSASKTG
Put plainly: flow cytometry on human eosinophils. Here is the method: Splenic B cells from mice immunized with purified human EMR1-Fc fusion protein were fused with SP2/0-Ag14 cells to generate hybridoma cell lines. Supernatants containing antibody from monoclonal lines were tested for binding to recombinant human EMR1 by ELISA. Antibodies that bound EMR1 were tested for binding to human eosinophils by flow cytometry. Polymorphonuclear-cell rich fractions from buffy coat blood were obtained by Ficoll gradient centrifugation and residual red blood cells were lysed with ammonium chloride (ACK lysis buffer). Eosinophils were isolated by negative selection using a MACS eosinophil isolation kit (Miltenyi) and incubated with 10 μg/ml rat IgG and 2% BSA to block nonspecific IgG binding before addition of anti-EMR1 antibody or isotype control antibody. Anti-mouse FITC antibody was used for detection of bound antibodies on a FACSCalibur flow cytometer.
A general note: A flow cytometer gives signals particle by particle.

Another assay has as its target T2, CD97 (UniProt P48960 21-552, limits assumed).
T2 sequence (looked up): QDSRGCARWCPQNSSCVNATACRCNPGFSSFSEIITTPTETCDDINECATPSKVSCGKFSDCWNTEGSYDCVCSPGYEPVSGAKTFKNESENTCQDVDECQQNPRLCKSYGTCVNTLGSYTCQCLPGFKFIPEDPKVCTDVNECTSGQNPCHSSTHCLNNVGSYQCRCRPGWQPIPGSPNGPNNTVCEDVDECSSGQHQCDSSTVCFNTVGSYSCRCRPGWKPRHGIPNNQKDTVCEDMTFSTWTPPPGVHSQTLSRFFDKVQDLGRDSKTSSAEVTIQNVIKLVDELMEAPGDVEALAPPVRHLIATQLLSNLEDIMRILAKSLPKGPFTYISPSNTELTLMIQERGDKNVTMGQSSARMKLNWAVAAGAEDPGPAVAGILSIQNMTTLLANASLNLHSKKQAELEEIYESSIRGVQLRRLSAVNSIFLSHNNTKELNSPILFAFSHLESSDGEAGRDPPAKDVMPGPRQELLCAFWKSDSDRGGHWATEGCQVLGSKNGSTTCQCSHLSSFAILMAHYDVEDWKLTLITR
Put plainly: not described.

In the next assay the target is T3, EMR2 (UniProt Q9UHX3 24-540, limits assumed).
T3 sequence (looked up): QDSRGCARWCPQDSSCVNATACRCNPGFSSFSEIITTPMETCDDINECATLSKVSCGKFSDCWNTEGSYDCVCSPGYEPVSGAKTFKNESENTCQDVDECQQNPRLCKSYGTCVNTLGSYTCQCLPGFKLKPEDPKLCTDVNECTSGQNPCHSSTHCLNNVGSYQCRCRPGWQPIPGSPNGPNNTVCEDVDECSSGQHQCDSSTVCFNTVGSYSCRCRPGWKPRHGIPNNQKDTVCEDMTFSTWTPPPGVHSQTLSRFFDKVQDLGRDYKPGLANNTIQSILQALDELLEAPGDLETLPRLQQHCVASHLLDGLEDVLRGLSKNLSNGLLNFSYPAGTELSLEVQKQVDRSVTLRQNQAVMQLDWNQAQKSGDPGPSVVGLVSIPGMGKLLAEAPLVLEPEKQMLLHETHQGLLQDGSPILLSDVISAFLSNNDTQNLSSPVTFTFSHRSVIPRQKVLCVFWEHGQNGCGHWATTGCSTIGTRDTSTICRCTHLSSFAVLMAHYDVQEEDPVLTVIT
Put plainly: not described.

A further assay addresses T4, Peptide 7.
T4 construct: also called 18 mer; EMR1 ELD-6 271-288
T4 peptide: RDIDECRQDPSTCGPNSI
Put plainly: biolayer interferometry (ForteBio Octet). Background: In BLI a coated tip is dipped into the sample, and binding shifts an interference pattern.

The target of another assay is T5, Peptide 4.
T5 construct: also called 20 mer; EMR1 ELD-6 271-290
T5 peptide: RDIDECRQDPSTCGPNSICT
Put plainly: biolayer interferometry (ForteBio Octet).

For another assay, the target named is T6, Peptide 1.
T6 construct: also called 27 mer; EMR1 ELD-6 271-297
T6 peptide: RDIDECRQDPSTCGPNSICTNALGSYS
Put plainly: biolayer interferometry (ForteBio Octet).

B1: monoclonal antibody 19-1E7 (antibody, V domains shown)
VH: QVQLKESGPGLVAPSQSLSITCTVSGFSLTNFGIHWVRQPPGKGLEWLGVIWSGGGTNYNSALMSRLSISKDNSKSQVFLKMNSLQTDDTAIYYCVSIYYRGFDSWGQGTTLTVSS
VL: DVFMTQAPLSLPVSLGDQASISCRSSQSIVHSNGNTYLEWYLQKPGQSPKLLIYRVSNRFSGVPDRFSGSGSGTDFTLKISRVEAEDLGVYYCFQGSHVPLTFGAGTRLELK
notes: Murine hybridoma antibody raised against human EMR1-Fc; Hybridoma supernatant was used in the screening
Consider B1, for which the binding result in assay [1] is “binds”; with CD97, “no binding”; in the assay with EMR2, “no binding”.

B2: chimeric 19-1E7 IgG1k antibody (c1E7) (antibody, V domains shown)
VH: B1 VH
VL: B1 VL
notes: 19-1E7 variable regions combined with human gamma-1 Fc and kappa constant regions (IgG1 kappa); Made in fucosylated (CHOK1 SV) and non-fucosylated (MS704-PF) forms; also called chimeric 1E7
With B2, the binding result with Peptide 7, with Peptide 4 and with Peptide 1 was “binds” throughout.
